Test results as given in US20040253612A1.

How the values were obtained:
[1] = molecular target: anti-myc monoclonal antibody (doped selection experiment); experiment: second set of digests, method 2; sample equivalent to lane 4 (1:2000 myc:pool)
[2] = molecular target: anti-myc monoclonal antibody (doped selection experiment); experiment: immunoprecipitation from 1:2000 myc:pool (LP154:LP160); PCR, AlwnI digest, phosphorimager; background method 3
[3] = molecular target: anti-myc monoclonal antibody (doped selection experiment); experiment: second set of digests, method 2; sample equivalent to lane 2 (1:20 myc:pool)
[4] = molecular target: anti-myc monoclonal antibody (doped selection experiment); experiment: second set of digests, method 2; sample equivalent to lane 3 (1:200 myc:pool)
[5] = molecular target: anti-myc monoclonal antibody (doped selection experiment); experiment: immunoprecipitation from 1:200 myc:pool (LP154:LP160); PCR, AlwnI digest, phosphorimager; background method 3
[6] = molecular target: anti-myc monoclonal antibody (doped selection experiment); experiment: immunoprecipitation from 1:20 myc:pool (LP154:LP160); PCR, AlwnI digest, phosphorimager; background method 3
[7] = molecular target: anti-myc monoclonal antibody (doped selection experiment); experiment: immunoprecipitation from 1:2000 myc:pool (LP154:LP160); PCR, AlwnI digest, phosphorimager; background method 1
[8] = molecular target: anti-myc monoclonal antibody (doped selection experiment); experiment: immunoprecipitation from 1:200 myc:pool (LP154:LP160); PCR, AlwnI digest, phosphorimager; background method 2
[9] = molecular target: anti-myc monoclonal antibody (doped selection experiment); experiment: immunoprecipitation from 1:200 myc:pool (LP154:LP160); PCR, AlwnI digest, phosphorimager; background method 1
[10] = molecular target: anti-myc monoclonal antibody (doped selection experiment); experiment: immunoprecipitation; PCR and restriction digest before and after selection
[11] = molecular target: anti-myc monoclonal antibody (doped selection experiment); experiment: immunoprecipitation from 1:20 myc:pool (LP154:LP160); PCR, AlwnI digest, phosphorimager; background method 2
[12] = molecular target: anti-myc monoclonal antibody (doped selection experiment); experiment: immunoprecipitation from 1:20 myc:pool (LP154:LP160); PCR, AlwnI digest, phosphorimager; background method 1
[13] = molecular target: anti-myc monoclonal antibody (doped selection experiment); experiment: immunoprecipitation from 1:2000 myc:pool (LP154:LP160); PCR, AlwnI digest, phosphorimager; background method 2

enrichment (fold) of myc template vs. pool [1]: 12 fold | Enrichment of Myc Template vs. Pool [2]: 10.2 fold | enrichment (fold) of myc template vs. pool [3]: 10.7 fold | enrichment (fold) of myc template vs. pool [4]: 38 fold | Enrichment of Myc Template vs. Pool [5]: 27 fold | Enrichment of Myc Template vs. Pool [6]: 8.7 fold | Enrichment of Myc Template vs. Pool [7]: 5.7 fold | Enrichment of Myc Template vs. Pool [8]: 43 fold | Enrichment of Myc Template vs. Pool [9]: 16.6 fold | enrichment (fold) relative to the random library [10]: 20 to 40 fold | Enrichment of Myc Template vs. Pool [11]: 10.4 fold | Enrichment of Myc Template vs. Pool [12]: 7 fold | Enrichment of Myc Template vs. Pool [13]: 39 fold
B1: RNA-protein fusion LP154 (long myc template fusion) (peptide)
peptide: MAEEQKLISEEDLLRKRREQLKHKLEQLRNSCA
modifications: C-terminus joined by an amide bond to the 3' puromycin of its own mRNA-DNA linker template LP154 (SEQ ID NO: 3)
